Series [1] is described as follows: folding stability dG unfold from trypsin proteolysis; higher = more stable. The method in brief:
(§1)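 Designed mini-proteins (under 80 residues, no cysteine) in a PA-tagged cDNA display construct were digested with trypsin and chymotrypsin. Each protease was used at 11 concentrations (threefold dilutions) plus a no-protease condition, followed by sequencing. K50 was inferred by Bayesian fitting of sequencing counts, and unfolding free energy was derived against a sequence-predicted unfolded-state K50 and a shared folded-state K50, per protease or combined. Only designs with AlphaFold2 dimer inter-PAE above 15 were kept.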

Series [2] can be described thus: folding stability dG unfold from chymotrypsin proteolysis; higher = more stable. The procedure, abridged: as §1
A short description of series [3]: folding stability dG unfold (combined trypsin and chymotrypsin); higher = more stable. The procedure, abridged: as §1

The text below walks through data of the supplement of paper PMC12764529.

± gives the half width of the 95% confidence interval.

For “SAGGSAGGSWKPIPYKIKMTDGDGEKHEFPVQIWVAPEDGWVFIDFPNGHPFWIPANNIKIEPSAGGSAGGS [r12_256_TrROS]”, the “folding stability dG unfold” value stood at 0.66 ± 0.062 kcal/mol in series [1], 1.88 ± 0.12 kcal/mol in series [2] and 1.4 ± 0.13 kcal/mol in series [3].
Take “SAGGSAGGSWVRDADGKPIPFKIDSVETKEENNPNGNRYYEIEARFPDNGKEFKATIPADDIKSAGGSAGGS [r12_823_TrROS]”: the “folding stability dG unfold” value was -0.551 ± 0.26 kcal/mol in series [1], 0.526 ± 0.2 kcal/mol in series [2] and 0.248 ± 0.11 kcal/mol in series [3].
In the case of “SAGGSAGGSYKIDKIEVQPPPGGYYQATIEVEQVDPENGNPQRQEQEIPVPANDPKQIKDFLKSAGGSAGGS [r12_691_TrROS]”, the figures for the “folding stability dG unfold” value in series [1], in series [2] and in series [3] were -0.523 ± 0.19 kcal/mol, 0.379 ± 0.16 kcal/mol and 0.174 ± 0.22 kcal/mol, respectively.
As to “SAGGSAGGSYTVETSPVPPGGLLKTYTSPDGVVTTTLYSPDGTVGETTTTPVPPVVPPDPAAAASAGGSAGG [r6_239_JUSTAS]”, the entries for the “folding stability dG unfold” value in series [1], in series [2] and in series [3] were -0.067 ± 0.075 kcal/mol, 1.33 ± 0.053 kcal/mol and 0.921 ± 0.11 kcal/mol, respectively.
Turning to “SAGGSAGGSYYPIEDPNGMKIWVEPDPDNGMYRIRIQFPEGKKVERTFPPGMPLDDIPIKIKDSAGGSAGGS [r12_261_TrROS]”, the “folding stability dG unfold” value is 0.688 ± 0.094 kcal/mol in series [1], -0.0445 ± 0.38 kcal/mol in series [2] and 0.434 ± 0.24 kcal/mol in series [3].
Taken in the same sequence, the figures for “SAGGSAGGTAEQIREIVEQLFRKRGMEPKKIEIKRVERNGDKVTIEVEWRWDNGRKRPRNIQIPSAGGSAGG [r6_841_TrROS]” were 0.722 ± 0.17 kcal/mol, 1.66 ± 0.12 kcal/mol and 1.18 ± 0.17 kcal/mol.
As to “SAGGSAGGTFEFFFPDGLYFTVEFRIVEMHPNPGNGQMHMRMEATIKIIPLPPPPPPPKDPGDKSAGGSAGG [r6_939_TrROS]”, the figures for the “folding stability dG unfold” value in series [1], in series [2] and in series [3] were 2.71 ± 0.087 kcal/mol, 4.3 ± 0.12 kcal/mol and 3.83 ± 0.2 kcal/mol, respectively.
Taken in the same sequence, the figures for “SAGGSAGGTIIIEVDTREDALEAARALAEALLPPGYRVEIVSVEEVDGRVYVAIEVRPVPEEELSAGGSAGG [r6_72_TrROS_Hall]” were 2.43 ± 0.12 kcal/mol, 3.26 ± 0.078 kcal/mol and 3.17 ± 0.12 kcal/mol.
On to “SAGGSAGGTIPSDYSVKELKVGGKKYVIVRYPDGIVELYSVEGNKKTLLRTVDTDPNASVSISGSAGGSAGG [r6_476_JUSTAS]”, for which the “folding stability dG unfold” value was 1.73 ± 0.044 kcal/mol in series [1], 2.67 ± 0.04 kcal/mol in series [2] and 2.38 ± 0.097 kcal/mol in series [3].
As to “SAGGSAGGTLKELIDNITRVDPENGKQRMRIPGGAEIEINPEEGQIKIRYYHPGKPQEITLPLPSAGGSAGG [r6_793_TrROS]”, the “folding stability dG unfold” value was determined as 0.46 ± 0.25 kcal/mol in series [1], 0.776 ± 0.24 kcal/mol in series [2] and 0.651 ± 0.31 kcal/mol in series [3].
Taken in the same sequence, the figures for “SAGGSAGGVISEEEIEAKAEEAKAEAIAAGLESKEVTITSPSGKVYKITVDVNSITIEKSPAAGSAGGSAGG [r6_270_JUSTAS]” were 0.879 ± 0.088 kcal/mol, 0.743 ± 0.088 kcal/mol and 0.832 ± 0.16 kcal/mol.
Regarding “SAGGSAGGVLRMVRRALKNGKNRPIVIYVPEPEQRNFIKWLKDEWPGIKIKVVPPDQMPPNQIISAGGSAGG [r6_87_TrROS]”, the “folding stability dG unfold” value is 1.42 ± 0.033 kcal/mol in series [1], 1.31 ± 0.068 kcal/mol in series [2] and 1.46 ± 0.094 kcal/mol in series [3].
For “SAGGSAGGVVLEVEIPYESEEEAREKAEEVLKELGLPESAKITKIEFYPGPGEKKSVKVYIKLESAGGSAGG [r6_284_JUSTAS]” the same measures were 1.92 ± 0.06 kcal/mol, 1.73 ± 0.018 kcal/mol and 1.83 ± 0.059 kcal/mol.
For “SAGGSAGGWIPPEMARNIAKTLRDKGWPVEDIEVEREPNGWVTVDVDIQYPDGKKRKYPIQIPYSAGGSAGG [r6_762_TrROS]” the same measures were -0.439 ± 0.22 kcal/mol, 0.226 ± 0.23 kcal/mol and 0.0547 ± 0.17 kcal/mol.
In the case of “SAGGSAGGWITPDAAKEFADKWGFDDVNVEVLDVDPNNNYVRVKVTARNPKNGNERPIGEFWFPSAGGSAGG [r6_699_TrROS]”, the “folding stability dG unfold” value in series [1] is 0.585 ± 0.056 kcal/mol; in series [2] it was 1.46 ± 0.045 kcal/mol; in series [3] it was 1.2 ± 0.066 kcal/mol.
Take “SAGGSAGGWREIKIYVPPGMPLEEIKDLIKEFFPGYKVEIDEIEREDNYVKATIRIQPLPPGDFSAGGSAGG [r6_623_TrROS]”: the “folding stability dG unfold” value in series [1] came to 3.08 ± 0.092 kcal/mol; in series [2], 2.81 ± 0.04 kcal/mol; in series [3] it was 2.96 ± 0.071 kcal/mol.
Regarding “SAGGSAGGWRIKIMPMGGKKKKIPIDSPEEIIDKIQKEAKEDGLPGNVRITVEYNGQKRTFTIRSAGGSAGG [r6_532_TrROS]”, the entries for the “folding stability dG unfold” value in series [1], in series [2] and in series [3] were 1.41 ± 0.16 kcal/mol, -0.203 ± 0.6 kcal/mol and 0.658 ± 0.2 kcal/mol, respectively.
Taken in the same sequence, the figures for “SAGGSAGIKAVLNLGDKPVLVLIEPLPDGSFPVIAIFADDGSKVEKVIPASDIGELLSLDPDKLTFSAGGSA [r15_629_TrMRF]” were 0.859 ± 0.035 kcal/mol, 0.0558 ± 0.26 kcal/mol and 0.6 ± 0.18 kcal/mol.
